Data as given in patent US20230256076A1 (SICHUAN CLOVER BIOPHARMACEUTICALS, published 2023).

Target: T1, exemplary recombinant polypeptide trimer: RSV F protein peptide (residues 1 to 520, RSV A2 strain) fused to … (respiratory syncytial virus A2 strain; …, UniProt P02452 1156-1464)
T1 construct: range 1-520;domain: C-propeptide of α1 collagen; Furin processing (F2/F1, loss of pep27) is not described for the tested protein; also called RSV F-Trimer; exemplary fusion peptide comprising an RSV F protein peptide
Test: BLI (ForteBio Octet QKe); palivizumab 5 µg/mL on Protein A sensors, 2-fold dilutions of fusion peptide from 20 µg/mL, 1:1 model

T1 sequence (P02452 1156-1464): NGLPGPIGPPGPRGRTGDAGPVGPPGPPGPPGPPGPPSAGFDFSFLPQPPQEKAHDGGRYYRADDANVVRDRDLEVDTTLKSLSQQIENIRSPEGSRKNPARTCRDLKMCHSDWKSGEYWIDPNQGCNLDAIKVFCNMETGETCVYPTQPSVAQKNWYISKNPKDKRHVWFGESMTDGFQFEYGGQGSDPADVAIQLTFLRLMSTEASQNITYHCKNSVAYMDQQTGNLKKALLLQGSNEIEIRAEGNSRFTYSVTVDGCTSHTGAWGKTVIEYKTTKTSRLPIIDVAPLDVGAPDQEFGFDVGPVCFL

B1: palivizumab (antibody, V domains shown)
VH: QVTLRESGPALVKPTQTLTLTCTFSGFSLSTSGMSVGWIRQPPGKALEWLADIWWDDKKDYNPSLKSRLTISKDTSKNQVVLKVTNMDPADTATYYCARSMITNWYFDVWGAGTTVTVSS
VL: DIQMTQSPSTLSASVGDRVTITCKCQLSVGYMHWYQQKPGKAPKLLIYDTSKLASGVPSRFSGSGSGTEFTLTISSLQPDDFATYYCFQGSGYPFTFGGGTKLEIK
Kd: < 1 pM
